# Results taken from article PMC3776838, “Detection of Phospho-Sites Generated by Protein Kinase CK2 in CFTR: Mechanistic Aspects of Thr1471 Phosphorylation” (PLoS ONE, 2013).
# Target: Human CK2 α2β2-holoenzyme (human) (UniProt P68400)
# Sequence (P68400 whole entry, chain 1 of 2): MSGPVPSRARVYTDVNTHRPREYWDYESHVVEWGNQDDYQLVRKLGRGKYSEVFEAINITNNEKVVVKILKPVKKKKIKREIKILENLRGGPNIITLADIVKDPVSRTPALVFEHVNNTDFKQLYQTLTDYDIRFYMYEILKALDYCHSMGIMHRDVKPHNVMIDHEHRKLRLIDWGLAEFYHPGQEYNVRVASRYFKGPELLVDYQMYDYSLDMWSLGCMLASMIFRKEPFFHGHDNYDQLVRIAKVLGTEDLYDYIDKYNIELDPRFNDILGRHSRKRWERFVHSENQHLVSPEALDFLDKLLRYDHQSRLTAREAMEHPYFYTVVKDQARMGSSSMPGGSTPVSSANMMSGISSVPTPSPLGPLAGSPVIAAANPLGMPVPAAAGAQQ
# Sequence (P67870 whole entry, chain 2 of 2, further chain): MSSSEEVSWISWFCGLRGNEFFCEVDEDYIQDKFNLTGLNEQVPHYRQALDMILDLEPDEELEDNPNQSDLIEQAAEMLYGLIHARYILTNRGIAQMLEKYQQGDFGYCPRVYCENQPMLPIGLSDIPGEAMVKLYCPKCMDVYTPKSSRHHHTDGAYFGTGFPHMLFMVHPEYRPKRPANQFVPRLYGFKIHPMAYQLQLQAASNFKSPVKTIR
# Chain of 42-mer peptide reproducing the C-terminal tail of human CFTR (residues 1439–1480) (P13569 1439-1480): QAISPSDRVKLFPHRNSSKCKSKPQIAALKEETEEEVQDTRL
substance,measurement,value
42-mer peptide reproducing the C-terminal tail of human CFTR (residues 1439–1480) (from UniProt P13569 1439-1480) (domain or fragment),"Km of phosphorylation of the 42-mer by CK2 holoenzyme (33P incorporation, Figure 3)",1.4 µM
